Reference: patent publication US20220112288A1 (published 2022)
Changes are numbered by the printed parent chain.

B1: 75110_11D03A (antibody, V domains shown)
VH: EVQLVESGGGLVQPGGSLRLSCAASGFTFSSYWMSWVRQAPGKGLEWVANINQDGNEKYYVDSVKGRFTISRDNAKNSLFLQMNSLRAEDTAVYYCAREGGQWLALDYWGQGALVTVSS
VL: DIQMTQSPSSVSASVGDRVTITCRASQGISSWLAWYQQKPGKAPKFLISGASSLQSGVPSRFSGSGSGTDFTLTISSLQPEDFATYYCQQANSFPWTFGQGTKVEIK
notes: Tested here as non-clonal hybridoma supernatant from AlivaMab Mouse Kappa mice (detected with anti-mouse Fc and anti-human kappa)
B2: 75110_05L07A (antibody, V domains shown)
VH: B1 VH with N56S, E57D, A75V, F80Y, M83I, A105T, A113T
VL: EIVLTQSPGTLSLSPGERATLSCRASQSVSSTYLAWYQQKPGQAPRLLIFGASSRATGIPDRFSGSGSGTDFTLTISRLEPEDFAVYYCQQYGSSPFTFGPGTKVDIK
notes: as for B1
B3: 75110_01A06A (antibody, V domains shown)
VH: B1 VH with Q53E, F68L, F80Y, Y95F, A105S
VL: B1 VL with T20S, F46I, S49Y
notes: as for B1
B4: 75110_03D16A (antibody, V domains shown)
VH: B1 VH with N56G, F80Y, A97V, A113T
VL: B1 VL with A34T, S49Y, G50A, S67F
notes: as for B1
B5: 75110_04K10A (antibody, V domains shown)
VH: B1 VH with N56S, F80Y, M83L, V93M, A105S, A113T
VL: B1 VL with F46V, S49Y, A51V, L54F, T72I
notes: as for B1
B6: 75110_12H17A (antibody, V domains shown)
VH: B1 VH with S31D, N52K, Q53E
VL: B1 VL with S63T
notes: as for B1
B7: 75110_12H19A (antibody, V domains shown)
VH: B1 VH with K43Q, Q53E, Y60H, F68L, F80Y, A88G, E89V, Y95F
VL: B1 VL with T20S, F46L, S49Y, S53G
notes: as for B1
B8: 75110_09G15A (antibody, V domains shown)
VH: B1 VH with S31D, N56S, Y60S, F80Y, V93I, Y94F, A113T
VL: B1 VL with F46L, S49Y, S76N, A84T, S93I
notes: as for B1
B9: 75110_09N20A (antibody, V domains shown)
VH: B1 VH with Q53E, N56S, F80Y, A97V, A113T
VL: B1 VL with F46L, S49Y, G50A, R61S, S76N, E105A
notes: as for B1
B10: 75110_07H07A (antibody, V domains shown)
VH: B1 VH with L4V, N52K, Q53E, D54E, N56S, F80Y, A97V, A113T
VL: B1 VL with A13G, F46L, S49F, E105Q
notes: as for B1
B11: 75110_04B08A (antibody, V domains shown)
VH: QVQLVESGGGVVQPGRSLRLSCTASGFNFINYGIHWVRQAPGKGLEWVTIIWYDGSKKYYADSVKGRFAISRDNSKNTLYLQMNSLRAEDTAVYYCAREDDWNDGLAYWGQGTLVTVSS
VL: AIQMTQSPSSLSASVGDRVTITCRASQDIRNDLGWYQQKPGKAPNLLIYAASNLQSGVPSRFSGSGSGTDFTLTISSLQPEDFATYYCLQDSNYPRTFGQGTKVEIK
notes: as for B1

biological target: T1, human CD4 on the surface of SKW3 cells or human PBMCs (human, UniProt P01730 26-458); experiment: FACS binning on SKW3 cells; competitor RPA-T4-PE-Dazzle 594 (its signal read); background 783, max binding 15000
T1 construct: whole, on cells; SKW3 CD4 knockout cells served as the negative cell line; also called hCD4; SKW3 WT
Description: (§1) αCD4 containing hybridoma supernatants were binned against three comparator antibodies by FACS using SKW3 cells, which endogenously express human CD4 protein. Briefly, SKW3 cells were incubated with saturated hybridoma supernatant for 30 minutes at 4° C.

Binder	RPA-T4-PE-Dazzle 594 signal
B1	13100
B2	15900
B3	14700
B4	12300
B5	9800
B6	14800
B7	14600
B8	14800
B9	14700
B10	14900
B11	14900

biological target: T1, human CD4 on the surface of SKW3 cells …; experiment: FACS confirmation, supernatant on SKW3 WT cells, anti-human kappa FITC; background gMFI 2500

Binder	SKW3 WT anti-hu Kappa FITC, gMFI [gMFI]
B1	4000
B2	5130
B3	5930
B4	7600
B5	6710
B6	5360
B7	6550
B8	5810
B9	5880
B10	8510
B11	6160

biological target: T1, human CD4 on the surface of SKW3 cells …; experiment: FACS binning on SKW3 cells; competitor OKT4-Alexa Fluor 488 (its signal read); background 2163, max binding 8200
Description: as §1

Binder	OKT4 A488 signal
B1	4180
B2	3120
B3	2140
B4	2280
B5	2760
B6	4020
B7	2620
B8	2990
B9	2700
B10	2060
B11	3170

biological target: T1, human CD4 on the surface of SKW3 cells …; experiment: FACS primary screen, non-clonal hybridoma supernatant, SKW3 vs SKW3 CD4 KO cells, anti-mouse Fc A647
Description: (§2) FACS cell binding. αCD4 antibody producing hybridomas were identified by cell surface CD4 binding using FACS. For primary screening SKW3 (human T-ALL) was used as the CD4 positive cell line and SKW3 CD4 knockout (KO) as the negative cell line, respectively. SKW3 KO cells were labeled with Tag-it Violet (BioLegend) at RT for 15 min. After removing extra dye by washing cells with FACS buffer (1% BSA/1 mM EDTA/0.05% NaN3 in PBS) equal number of SKW3 and labeled SKW3 CD4 KO cells were combined, washed, and resuspended in FACS buffer at 8E6 cells/6 mL. […] Cells (˜20K/15 μL/well) were added to the supernatant and incubated at 4° C. for 30 minutes. […] Cells were washed twice before acquired by IQUE3 Flow Cytometer and analyzed with FORECYT software (Sartorius). Positive wells were selected with the following criteria: Over 2-fold selective binding to SKW3 cell line relative to SKW3 CD4 KO with over 10% signal above background binding with anti-human Kappa. Hybridomas from primary screening positive wells were transferred to 96 well plates.

Binder	SKW3 WT vs KO anti-mFc-647 [ratio]
B1	2.6
B2	3.9
B3	7.5
B4	6.5
B5	5
B6	4
B7	5.2
B8	4.8
B9	5.4
B10	5.7
B11	6.7

biological target: T1, human CD4 on the surface of SKW3 cells …; experiment: FACS confirmation, supernatant on human PBMCs, anti-mouse Fc A647
Description: (§3) FACS Confirmation screens were performed for primary screening positive hybridomas using human PBMCs in addition to SKW3/SKW3 CD4 KO cell lines. PBMCs were thawed and resuspended to 8E6/mL in FACS buffer. […] PBMCs were added to the 96 well plates (25 μL/well) and incubated at 4° C. for 30 minutes. […] Cells were washed twice before acquired by IQUE3 Flow Cytometer and analyzed with FORECYT software (Sartorius). Primary parameter used to assess confirmation was CD4 positive percent of viable cells. […] SKW3 gMFI binding was used as secondary parameter to assess confirmation.

Binder	PBMCs, anti-mFc 647 CD4+ Percent Bound of Viable [%]
B1	29
B2	29
B3	31
B4	31
B5	33
B6	29
B7	27
B8	28
B9	33
B10	27
B11	29

biological target: T1, human CD4 on the surface of SKW3 cells …; experiment: FACS confirmation, supernatant on SKW3 WT cells, anti-mouse Fc A647; background gMFI 3300
Description: as §3

Binder	SKW3 WT anti-mFc 647, gMFI [gMFI]
B1	21100
B2	16300
B3	32300
B4	36000
B5	36700
B6	18000
B7	22800
B8	22300
B9	24800
B10	34300
B11	22600

biological target: T2, huCD4-HIS (human, UniProt P01730 26-390, limits assumed); experiment: ELISA binning; competitor ibalizumab; 100 ng/mL huCD4-HIS, anti-HIS HRP detection; background 45, max binding 3000000
T2 construct: not shown: HIS tag

Binder	Ibalizumab ELISA binning signal
B1	1.63e+06
B2	2.57e+06
B3	1.26e+06
B4	663000
B5	1.13e+06
B6	2.2e+06
B7	1.74e+06
B8	1.99e+06
B9	1.76e+06
B10	2.11e+06
B11	1.95e+06

biological target: T1, human CD4 on the surface of SKW3 cells …; experiment: FACS confirmation, supernatant on human PBMCs, anti-mouse Fc A647, CD4+ gate
Description: as §3

Binder	PBMCs, anti-mFc 647 CD4+ gate - RL1 Binding
B1	190000
B2	181000
B3	321000
B4	319000
B5	346000
B6	264000
B7	244000
B8	304000
B9	287000
B10	234000
B11	274000

biological target: T1, human CD4 on the surface of SKW3 cells …; experiment: FACS binning on SKW3 cells; competitor OKT4a, anti-human A647 secondary (its signal read); background 5000, max binding 35000
Description: as §1

Binder	OKT4a anti-hu A647 Secondary signal
B1	43700
B2	37400
B3	43700
B4	35900
B5	43100
B6	42000
B7	34400
B8	44600
B9	46600
B10	39400
B11	43400

biological target: T1, human CD4 on the surface of SKW3 cells …; experiment: FACS primary screen, non-clonal hybridoma supernatant, SKW3 vs SKW3 CD4 KO cells, anti-human kappa FITC
Description: as §2

Binder	SKW3 WT vs KO anti-hKappa-FITC [ratio]
B1	1
B2	1.5
B3	2.4
B4	2.8
B5	1.5
B6	2
B7	2.4
B8	2
B9	2.2
B10	2.3
B11	2.3
